From patent US20250051456A1 (Hoffmann-La Roche, published 2025)

Assays:
[1] = biological target: human HLA-G expressed on cells (JEG3 naturally; Skov3 and PA-TU-8902 transfectants) (human); assay: cell-based or functional assay
[2] = biological target: T1, monomeric human HLA-G β2M MHC class I complex (soluble recombinant wt HLA-G) (human); assay: ELISA, biotinylated wt HLA-G monomer on streptavidin plate; the 6th table ELISA series (monomer, dimer, trimer), separate from the 7th table
T1 construct: also called HLA-G-0003; wt HLA-G (monomer)
Procedure: The above table summarizes the binding of different rat anti-human HLA-G monoclonal antibodies, derived from wt protein IMS. Shown are the relative EC50 values [ng/ml] of the respective binding to rec. wt monomeric, dimeric and trimeric HLA-G proteins as assessed by ELISA. The ELISA was set up by coating the biotinylated wt HLA-G antigen to strepdavidin plates. After incubation and washing steps, the respective antibodies were bound in a concentration range from […] in 1:2 dilution steps. Detection of bound antibodies was carried out by anti-Fc-antibody-POD conjugates. EC50 values were determined from the resulting binding curves at the antibody concentrations generating the half-maximal signal. In case of the non-biotinylated HLA-G dimer and trimer antigens, immobilization was carried out by random coating on assay plates.

Row | % TNF release (restoration), different donor, JEG-3 wt co-culture; antibody 0.16 µg/ml [1] | % TNF release (restoration), different donor, JEG-3 wt co-culture; antibody 0.63 µg/ml [1] | % TNF release (restoration), different donor, JEG-3 wt co-culture; antibody 2.5 µg/ml [1] | % TNF release (restoration), different donor, JEG-3 wt co-culture; antibody 10 µg/ml [1] | EC50 [2] | Binder
1 | 198% | 219% | 233% | 221% |  | HLA-G-0090 (antibody, V domains shown) VH: QVQLQQSGPGLLKPSQTLSLTCAISGDSVSSNRAAWNWIRQSPSRGLEWLGRTYYRSKWYNDYAVSVQGRITLIPDTSKNQFSLRLNSVTPEDTAVYYCASVRAVAPFDYWGQGVLVTVSS VL: not shown
2 | 14% | 44% | 67% | 74% |  | HLA-G-0031 (antibody, V domains shown) VH: QVKLMQSGAALVKPGTSVKMSCNASGYTFTDYWVSWVKQSHGKRLEWVGEISPNSGASNFDENFKDKATLTVDKSTSTAYMELSRLTSEDSAIYYCTRSSHGSFRWFAYWGQGTLVTVSS VL: AIVLNQSPSSIVASQGEKVTITCRASSSVSSNHLHWYQQKPGAFPKFVIYSTSQRASGIPSRFSGSGSGTSYSFTISRVEAEDVATYYCQQGSSNPYTFGAGTKLELK
3 | 44% | 66% | 59% | 40% | 4.95 ng/mL | HLA-G-0041 (antibody, V domains shown) VH: EVQLLESGGGLVQPGGSLRLSCAASGFTFSTYGMSWVRQAPGKGLEWVSVISGGGVSTYYADSVKGRFTISRDNSKNTLYLQMNRLRAEDTAVYYCAKDGSYNYGYGDYFDYWGQGTLVTVSS VL: not shown
